In patent US20100285028A1 one finds circulating plasma vWF abundance in mice lacking Asgr-1 data, which are given here for one substance.

In this assay the target is von Willebrand factor (mouse) (UniProt Q8CIZ8). The assay can be described thus: cell-based or functional assay.
Sequence of UniProt Q8CIZ8 (Q8CIZ8 764-2813 limits assumed): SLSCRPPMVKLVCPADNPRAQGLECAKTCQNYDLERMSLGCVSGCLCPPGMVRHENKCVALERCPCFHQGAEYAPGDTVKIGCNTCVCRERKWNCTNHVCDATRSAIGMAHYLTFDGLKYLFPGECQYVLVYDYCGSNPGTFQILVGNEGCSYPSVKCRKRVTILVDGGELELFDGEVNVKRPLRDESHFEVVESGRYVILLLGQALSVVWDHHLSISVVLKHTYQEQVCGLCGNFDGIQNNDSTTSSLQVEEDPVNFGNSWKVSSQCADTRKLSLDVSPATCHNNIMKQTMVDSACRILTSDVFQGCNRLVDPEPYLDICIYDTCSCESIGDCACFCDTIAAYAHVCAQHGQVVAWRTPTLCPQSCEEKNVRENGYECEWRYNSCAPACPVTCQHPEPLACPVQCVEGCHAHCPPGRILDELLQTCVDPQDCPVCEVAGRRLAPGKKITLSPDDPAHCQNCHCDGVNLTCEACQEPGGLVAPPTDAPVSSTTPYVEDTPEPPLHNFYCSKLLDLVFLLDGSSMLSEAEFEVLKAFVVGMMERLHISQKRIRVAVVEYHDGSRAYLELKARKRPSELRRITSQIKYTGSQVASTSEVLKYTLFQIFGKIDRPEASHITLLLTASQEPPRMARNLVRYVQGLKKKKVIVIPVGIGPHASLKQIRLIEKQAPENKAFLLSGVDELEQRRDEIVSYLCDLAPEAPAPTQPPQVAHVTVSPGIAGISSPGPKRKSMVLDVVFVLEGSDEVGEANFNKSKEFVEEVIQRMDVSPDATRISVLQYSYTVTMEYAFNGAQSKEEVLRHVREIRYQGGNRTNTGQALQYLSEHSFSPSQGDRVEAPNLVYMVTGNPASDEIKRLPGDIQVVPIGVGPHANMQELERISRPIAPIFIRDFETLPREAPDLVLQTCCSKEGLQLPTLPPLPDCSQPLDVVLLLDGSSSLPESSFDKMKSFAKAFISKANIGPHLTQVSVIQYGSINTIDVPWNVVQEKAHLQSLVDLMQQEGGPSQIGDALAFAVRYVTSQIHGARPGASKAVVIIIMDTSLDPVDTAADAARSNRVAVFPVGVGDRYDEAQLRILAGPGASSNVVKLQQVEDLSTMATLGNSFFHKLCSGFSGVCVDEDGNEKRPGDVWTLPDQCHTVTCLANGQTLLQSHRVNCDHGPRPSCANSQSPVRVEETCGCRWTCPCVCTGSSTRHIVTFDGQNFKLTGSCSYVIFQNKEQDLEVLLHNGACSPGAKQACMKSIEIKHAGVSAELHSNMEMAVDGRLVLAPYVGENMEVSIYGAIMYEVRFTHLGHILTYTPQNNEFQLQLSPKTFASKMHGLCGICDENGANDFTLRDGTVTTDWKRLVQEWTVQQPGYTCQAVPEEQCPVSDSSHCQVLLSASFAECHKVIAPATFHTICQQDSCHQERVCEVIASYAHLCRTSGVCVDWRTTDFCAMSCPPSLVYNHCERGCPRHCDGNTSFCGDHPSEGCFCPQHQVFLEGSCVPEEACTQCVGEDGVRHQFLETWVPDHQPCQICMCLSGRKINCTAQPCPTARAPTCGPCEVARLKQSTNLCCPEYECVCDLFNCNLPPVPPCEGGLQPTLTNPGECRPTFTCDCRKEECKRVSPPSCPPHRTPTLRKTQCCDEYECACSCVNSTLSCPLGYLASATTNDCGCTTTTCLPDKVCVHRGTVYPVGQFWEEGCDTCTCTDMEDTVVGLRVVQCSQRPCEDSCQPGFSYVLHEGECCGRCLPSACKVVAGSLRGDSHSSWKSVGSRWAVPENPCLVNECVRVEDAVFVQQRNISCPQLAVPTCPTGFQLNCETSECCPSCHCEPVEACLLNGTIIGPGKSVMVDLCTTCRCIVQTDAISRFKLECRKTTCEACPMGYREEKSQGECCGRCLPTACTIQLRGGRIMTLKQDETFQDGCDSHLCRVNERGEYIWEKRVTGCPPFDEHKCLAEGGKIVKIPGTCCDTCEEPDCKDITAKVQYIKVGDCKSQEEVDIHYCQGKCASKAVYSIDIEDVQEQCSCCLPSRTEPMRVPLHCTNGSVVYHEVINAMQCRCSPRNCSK

Regarding “Asgr-1 chain of the Ashwell receptor (from UniProt P34927 1-284)”, the circulating plasma vWF abundance in mice lacking Asgr-1 came to 1.5 fold.
